Experimental data taken from patent publication US20090317401A1.
Values belong to the substance of their own block, whether it stands above or below them.

Experiments:
Test in all cases: cell-based or functional assay
[1] = biological target: CD16 receptor on PB-NK cells (human) (UniProt P08637)
[2] = biological target: human CD160 receptor (human) (UniProt O95971)
[3] = biological target: HLA-C expressed on K562class I+ cells (human) (UniProt P10321)
Sequence of UniProt P10321 (P10321 25-366): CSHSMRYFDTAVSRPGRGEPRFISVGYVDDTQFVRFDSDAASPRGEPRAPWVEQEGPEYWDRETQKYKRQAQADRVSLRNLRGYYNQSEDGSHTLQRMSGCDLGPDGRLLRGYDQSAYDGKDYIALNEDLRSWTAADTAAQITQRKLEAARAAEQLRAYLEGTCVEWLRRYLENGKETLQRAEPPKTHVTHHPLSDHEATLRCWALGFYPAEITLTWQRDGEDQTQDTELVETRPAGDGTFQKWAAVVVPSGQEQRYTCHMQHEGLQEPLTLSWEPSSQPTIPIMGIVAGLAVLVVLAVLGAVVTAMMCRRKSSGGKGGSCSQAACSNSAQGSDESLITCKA

Sequence of UniProt O95971 (O95971 25-159): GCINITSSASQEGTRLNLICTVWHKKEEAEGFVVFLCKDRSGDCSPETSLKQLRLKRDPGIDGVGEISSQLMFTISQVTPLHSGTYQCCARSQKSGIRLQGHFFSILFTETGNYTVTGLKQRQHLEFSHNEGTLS
Sequence of UniProt P08637 (P08637 17-254): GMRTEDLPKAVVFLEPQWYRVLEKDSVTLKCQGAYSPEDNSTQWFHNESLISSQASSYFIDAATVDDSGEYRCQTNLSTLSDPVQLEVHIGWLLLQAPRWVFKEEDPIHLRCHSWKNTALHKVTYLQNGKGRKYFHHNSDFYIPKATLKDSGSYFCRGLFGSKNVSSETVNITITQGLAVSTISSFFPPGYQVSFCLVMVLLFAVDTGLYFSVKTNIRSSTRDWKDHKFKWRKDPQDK

- IFN-γ production by PB-NK after mAb cross-linking of CD16, against CD160 engagement [1]: 30 fold less
Substance: 3G8 anti-CD16 mAb (IgG1; Beckman-Coulter) (antibody)

- IFN-γ production by PB-NK co-cultured 16 h with K562Class-I+ (Cytometric Bead Array) [2]: 29400 pg/mL
- IFN-γ production by PB-NK co-cultured with K562Class-I+ in the presence of IgG1 isotype control [2]: 23100 pg/mL
- IFN-γ production by PB-NK co-cultured with K562Class-I+ in the presence of IgG2a isotype control [2]: 16100 pg/mL
- IL-6 production by PB-NK co-cultured 16 h with K562Class-I+ (Cytometric Bead Array) [2]: 620 pg/mL
- IL-6 production by PB-NK co-cultured with K562Class-I+ in the presence of IgG1 isotype control [2]: 414 pg/mL
- IL-6 production by PB-NK co-cultured with K562Class-I+ in the presence of IgG2a isotype control [2]: 478 pg/mL
- TNF-α production by PB-NK co-cultured 16 h with K562Class-I+ (Cytometric Bead Array) [2]: 334 pg/mL
- TNF-α production by PB-NK co-cultured with K562Class-I+ in the presence of IgG1 isotype control [2]: 200 pg/mL
- TNF-α production by PB-NK co-cultured with K562Class-I+ in the presence of IgG2a isotype control [2]: 215 pg/mL
Substance: HLA-C expressed on K562class I+ cells (from UniProt P10321 25-366) (ligand)

- IFN-γ production by PB-NK co-cultured 16 h with K562-Cw5 (Cytometric Bead Array) [2]: 20100 pg/mL
- IL-6 production by PB-NK co-cultured 16 h with K562-Cw5 (Cytometric Bead Array) [2]: 689 pg/mL
- TNF-α production by PB-NK co-cultured 16 h with K562-Cw5 (Cytometric Bead Array) [2]: 389 pg/mL
Substance: HLA-Cw5 on K562-HLA-Cw5 transfectants (ligand)

- IFN-γ production by PB-NK co-cultured with K562Class-I+ in the presence of blocking anti-HLA-C mAb [3]: 1150 pg/mL
- IL-6 production by PB-NK co-cultured with K562Class-I+ in the presence of blocking anti-HLA-C mAb [3]: 370 pg/mL
- TNF-α production by PB-NK co-cultured with K562Class-I+ in the presence of blocking anti-HLA-C mAb [3]: 64 pg/mL
Substance: W6/32 anti-HLA mAb (IgG2a; ATCC HB-95) (antibody)
